Measured values: IntAct's records for PubMed 25910212

B1: PiggyBac transposable element-derived protein 1 (Homo sapiens), Q96JS3 (parent)
chain: MYEALPGPAPENEDGLVKVKEEDPTWEQVCNSQEGSSHTQEICRLRFRHFCYQEAHGPQEALAQLRELCHQWLRPEMHTKEQIMELLVLEQFLTILPKELQPCVKTYPLESGEEAVTVLENLETGSGDTGQQASVYIQGQDMHPMVAEYQGVSLECQSLQLLPGITTLKCEPPQRPQGNPQEVSGPVPHGSAHLQEKNPRDKAVVPVFNPVRSQTLVKTEEETAQAVAAEKWSHLSLTRRNLCGNSAQETVMSLSPMTEEIVTKDRLFKAKQETSEEMEQSGEASGKPNRECAPQIPCSTPIATERTVAHLNTLKDRHPGDLWARMHISSLEYAAGDITRKGRKKDKARVSELLQGLSFSGDSDVEKDNEPEIQPAQKKLKVSCFPEKSWTKRDIKPNFPSWSALDSGLLNLKSEKLNPVELFELFFDDETFNLIVNETNNYASQKNVSLEVTVQEMRCVFGVLLLSGFMRHPRREMYWEVSDTDQNLVRDAIRRDRFELIFSNLHFADNGHLDQKDKFTKLRPLIKQMNKNFLLYAPLEEYYCFDKSMCECFDSDQFLNGKPIRIGYKIWCGTTTQGYLVWFEPYQEESTMKVDEDPDLGLGGNLVMNFADVLLERGQYPYHLCFDSFFTSVKLLSALKKKGVRATGTIRENRTEKCPLMNVEHMKKMKRGYFDFRIEENNEIILCRWYGDGIISLCSNAVGIEPVNEVSCCDADNEEIPQISQPSIVKVYDECKEGVAKMDQIISKYRVRIRSKKWYSILVSYMIDVAMNNAWQLHRACNPGASLDPLDFRRFVAHFYLEHNAHLSD
B2: Glycophorin-B (Homo sapiens), P06028 (parent)
chain: MYGKIIFVLLLSEIVSISALSTTEVAMHTSTSSSVTKSYISSQTNGETGQLVHRFTVPAPVVIILIILCVMAGIIGTILLISYSIRRLIKA
B3: Neuromedin-B (Homo sapiens), P08949-2 (parent)
chain: MARRAGGARMFGSLLLFALLAAGVAPLSWDLPEPRSRASKIRVHSRGNLWATGHFMGKKSLEPSSPSPLGTAPHTSLRDQRLQLSHDLLGILLLKKALGVSLSRPAPQIQEAAGTNTAEMTPIMGQTQQRGLDCAHPGKVLNGTLLMAPSGCKS
B4: EF-hand domain-containing protein 1 (Homo sapiens), Q5JVL4 (parent)
chain: MVSNPVHGLPFLPGTSFKDSTKTAFHRSQTLSYRNGYAIVRRPTVGIGGDRLQFNQLSQAELDELASKAPVLTYGQPKQAPPADFIPAHVAFDKKVLKFDAYFQEDVPMSTEEQYRIRQVNIYYYLEDDSMSVIEPVVENSGILQGKLIKRQRLAKNDRGDHYHWKDLNRGINITIYGKTFRVVDCDQFTQVFLESQGIELNPPEKMALDPYTELRKQPLRKYVTPSDFDQLKQFLTFDKQVLRFYAIWDDTDSMYGECRTYIIHYYLMDDTVEIREVHERNDGRDPFPLLMNRQRVPKVLVENAKNFPQCVLEISDQEVLEWYTAKDFIVGKSLTILGRTFFIYDCDPFTRRYYKEKFGITDLPRIDVSKREPPPVKQELPPYNGFGLVEDSAQNCFALIPKAPKKDVIKMLVNDNKVLRYLAVLESPIPEDKDRRFVFSYFLATDMISIFEPPVRNSGIIGGKYLGRTKVVKPYSTVDNPVYYGPSDFFIGAVIEVFGHRFIILDTDEYVLKYMESNAAQYSPEALASIQNHVRKREAPAPEAESKQTEKDPGVQELEALIDTIQKQLKDHSCKDNIREAFQIYDKEASGYVDRDMFFKICESLNVPVDDSLVKELIRMCSHGEGKINYYNFVRAFSN
partner: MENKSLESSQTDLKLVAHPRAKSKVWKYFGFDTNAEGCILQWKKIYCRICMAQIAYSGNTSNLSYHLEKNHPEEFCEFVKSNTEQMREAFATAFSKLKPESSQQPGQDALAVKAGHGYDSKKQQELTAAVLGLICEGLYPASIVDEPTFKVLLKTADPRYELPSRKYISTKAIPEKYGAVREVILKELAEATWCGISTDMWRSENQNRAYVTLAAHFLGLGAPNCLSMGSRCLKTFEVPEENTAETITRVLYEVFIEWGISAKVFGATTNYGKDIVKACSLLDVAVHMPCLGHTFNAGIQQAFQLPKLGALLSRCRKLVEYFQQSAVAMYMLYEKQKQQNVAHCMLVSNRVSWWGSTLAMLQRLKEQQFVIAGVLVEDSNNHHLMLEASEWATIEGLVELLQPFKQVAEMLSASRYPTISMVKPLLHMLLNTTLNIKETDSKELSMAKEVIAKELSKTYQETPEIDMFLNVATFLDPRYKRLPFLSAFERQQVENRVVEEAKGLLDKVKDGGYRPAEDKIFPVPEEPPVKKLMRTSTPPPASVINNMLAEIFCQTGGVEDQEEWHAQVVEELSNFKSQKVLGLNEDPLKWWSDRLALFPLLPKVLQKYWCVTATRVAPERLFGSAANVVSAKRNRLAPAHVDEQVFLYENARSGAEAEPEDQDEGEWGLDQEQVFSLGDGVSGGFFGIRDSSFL
B5: Retinol dehydrogenase 12 (Homo sapiens), Q96NR8 (parent)
chain: MLVTLGLLTSFFSFLYMVAPSIRKFFAGGVCRTNVQLPGKVVVITGANTGIGKETARELASRGARVYIACRDVLKGESAASEIRVDTKNSQVLVRKLDLSDTKSIRAFAEGFLAEEKQLHILINNAGVMMCPYSKTADGFETHLGVNHLGHFLLTYLLLERLKVSAPARVVNVSSVAHHIGKIPFHDLQSEKRYSRGFAYCHSKLANVLFTRELAKRLQGTGVTTYAVHPGVVRSELVRHSSLLCLLWRLFSPFVKTAREGAQTSLHCALAEGLEPLSGKYFSDCKRTWVSPRARNNKTAERLWNVSCELLGIRWE
B6: Ribose-phosphate pyrophosphokinase 1 (Homo sapiens), P60891 (parent)
chain: MPNIKIFSGSSHQDLSQKIADRLGLELGKVVTKKFSNQETCVEIGESVRGEDVYIVQSGCGEINDNLMELLIMINACKIASASRVTAVIPCFPYARQDKKDKSRAPISAKLVANMLSVAGADHIITMDLHASQIQGFFDIPVDNLYAEPAVLKWIRENISEWRNCTIVSPDAGGAKRVTSIADRLNVDFALIHKERKKANEVDRMVLVGDVKDRVAILVDDMADTCGTICHAADKLLSAGATRVYAILTHGIFSGPAISRINNACFEAVVVTNTIPQEDKMKHCSKIQVIDISMILAEAIRRTHNGESVSYLFSHVPL
partner: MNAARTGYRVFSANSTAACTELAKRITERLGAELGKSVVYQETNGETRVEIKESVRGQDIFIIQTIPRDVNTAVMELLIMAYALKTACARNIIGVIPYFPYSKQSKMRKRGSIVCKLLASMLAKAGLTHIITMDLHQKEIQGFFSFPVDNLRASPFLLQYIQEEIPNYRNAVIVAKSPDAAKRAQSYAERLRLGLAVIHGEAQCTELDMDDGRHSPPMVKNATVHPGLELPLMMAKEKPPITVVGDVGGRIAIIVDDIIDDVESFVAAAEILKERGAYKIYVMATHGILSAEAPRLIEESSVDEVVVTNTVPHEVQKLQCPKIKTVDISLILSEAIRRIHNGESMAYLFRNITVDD
B7: N-chimaerin (Homo sapiens), P15882 (parent)
chain: MALTLFDTDEYRPPVWKSYLYQLQQEAPHPRRITCTCEVENRPKYYGREFHGMISREAADQLLIVAEGSYLIRESQRQPGTYTLALRFGSQTRNFRLYYDGKHFVGEKRFESIHDLVTDGLITLYIETKAAEYIAKMTINPIYEHVGYTTLNREPAYKKHMPVLKETHDERDSTGQDGVSEKRLTSLVRRATLKENEQIPKYEKIHNFKVHTFRGPHWCEYCANFMWGLIAQGVKCADCGLNVHKQCSKMVPNDCKPDLKHVKKVYSCDLTTLVKAHTTKRPMVVDMCIREIESRGLNSEGLYRVSGFSDLIEDVKMAFDRDGEKADISVNMYEDINIITGALKLYFRDLPIPLITYDAYPKFIESAKIMDPDEQLETLHEALKLLPPAHCETLRYLMAHLKRVTLHEKENLMNAENLGIVFGPTLMRSPELDAMAALNDIRYQRLVVELLIKNEDILF

Variants of: B1
Settings: with NR4A1, P22736-2

Variant	effect of a mutation on the interaction
P256L	with no effect
H806D	with no effect
Q248E	with no effect
I678V	with no effect
G244E	with no effect

Variants of: B1
Settings: with znf24_human ZNF24, P17028

Variant	effect of a mutation on the interaction
P256L	with no effect
H806D	with no effect
Q248E	with no effect
I678V	with no effect
G244E	with no effect

Variants of: B1
Settings: with zn496_human ZNF496, Q96IT1

Variant	effect of a mutation on the interaction
P256L	with no effect
H806D	with no effect
Q248E	with no effect
I678V	with no effect
G244E	with no effect

Variants of: B1
Settings: with zsc22_human ZSCAN22, P10073

Variant	effect of a mutation on the interaction
P256L	with no effect
H806D	with no effect
Q248E	with no effect
I678V	with no effect
G244E	with no effect

Variants of: B1
Settings: with meox2_human MEOX2, P50222

Variant	effect of a mutation on the interaction
P256L	with no effect
H806D	with no effect
Q248E	with no effect
I678V	with no effect
G244E	with no effect

Variants of: B2
Settings: with ubql1_human UBQLN1, Q9UMX0

Variant	effect of a mutation on the interaction
T48M	with no effect

Variants of: B3
Settings: with birc2_human BIRC2, Q13490

Variant	effect of a mutation on the interaction
M120I	with no effect

Variants of: B4
Settings: with zbed1_human ZBED1, O96006

Variant	effect of a mutation on the interaction
R221H	disrupting interaction strength
P77T	disrupting interaction strength
M448T	with no effect
T508R	disrupting interaction strength
R159W	with no effect
A394S	disrupting interaction strength

Variants of: B5
Settings: with RBPMS

Variant	effect of a mutation on the interaction
T49M	with no effect
L99I	with no effect
C285Y	with no effect
P230A	with no effect

Variants of: B6
Settings: with kpra_human PRPSAP1, Q14558

Variant	effect of a mutation on the interaction
D52H	with no effect
N114S	with no effect
D183H	with no effect

Variants of: B7
Settings: with nck2_human NCK2, O43639

Variant	effect of a mutation on the interaction
A223V	with no effect
L20F	with no effect
G228S	with no effect
P252Q	with no effect
